{"source": "patent US20250236663A1", "binders": {"B1": {"name": "Anti-FAM19A5 (P2-C12) (antibody, V domains shown)", "VH": "QSLEESGGRLVTPGTPLTLTCTVSGFSLSTYAVTWVRQAPGKGLEWIGYINWRGGTSYANWAKGRFTISKTSSTTVDLKMTSPTTEDTATYFCARDASSGAAFGSYGMDPWGPGTLVTVSS", "VL": "ELDMTQTPSSVSAAVGGTVTIKCQASQSISSYLSWYQQKPGQPPKLLIYEASKLASGVPSRFSGSGYGTEFTLTISDLECADAATYYCQQGYSSTNVWNAFGGGTNVEIK"}}, "key": {"[1]": {"biological_target": "Recombinant human FAM19A5 protein (His-tagged) (human) (UniProt Q7Z5A7)", "assay": "ELISA, N'-Term His", "set-up": "unit not given here"}, "[2]": {"biological_target": "Recombinant human FAM19A5 protein (His-tagged) (human) (UniProt Q7Z5A7)", "assay": "ELISA, N'-Term His; R² 0.9422"}, "[3]": {"biological_target": "FAM19A5 epitope fragment F1 (BSA-conjugated) (human)", "assay": "ELISA on the coated BSA-conjugated fragment"}, "[4]": {"biological_target": "FAM19A5 epitope fragment F2 (BSA-conjugated) (human)", "assay": "ELISA on the coated BSA-conjugated fragment"}, "[5]": {"biological_target": "FAM19A5 epitope fragment F3 (BSA-conjugated) (human)", "assay": "ELISA on the coated BSA-conjugated fragment"}, "[6]": {"biological_target": "FAM19A5 epitope fragment F4 (BSA-conjugated) (human)", "assay": "ELISA on the coated BSA-conjugated fragment"}, "[7]": {"biological_target": "FAM19A5 epitope fragment F6 (BSA-conjugated) (human)", "assay": "ELISA on the coated BSA-conjugated fragment"}, "[8]": {"biological_target": "Recombinant human FAM19A5 protein (His-tagged) (human) (UniProt Q7Z5A7)", "assay": "ELISA on coated His-tagged FAM19A5 (positive control); the bar ends at the top of the axis"}}}
{"binder": "B1", "values": [{"measurement": "Bmax", "setting": "[1]", "result": 1.73}, {"measurement": "Kd", "setting": "[2]", "result": 7.64, "unit": "nM"}, {"measurement": "O.D (492nm)", "setting": "[3]", "result": 0.139}, {"measurement": "O.D (492nm)", "setting": "[4]", "result": 0.394}, {"measurement": "O.D (492nm)", "setting": "[5]", "result": 0.224}, {"measurement": "O.D (492nm)", "setting": "[6]", "result": 0.162}, {"measurement": "O.D (492nm)", "setting": "[7]", "result": 0.139}, {"measurement": "O.D (492nm)", "setting": "[8]", "result": 4}]}
